Reference: patent publication US20110200629A1

Biological target: T1, HLA-A0201 (human), P04439
T1 chain: not shown

B1: murine H-2 Kb binding peptide VSV8 (RGYVYQGL, SEQ ID NO:6) (peptide)
peptide: RGYVYQGL
modifications: not checked
  % MFI increase: 5.6%
